Tests used:
Test in all cases: sandwich ELISA, AM14 coated, supernatant 1:10
FHM-12 (RSV strain A2) = FHM-12 (RSV strain A2) (UniProt P03420)
FHM-13 (RSV strain A2) = FHM-13 (RSV strain A2) (UniProt P03420)
FHM-4 (RSV strain A2) = FHM-4 (RSV strain A2) (UniProt P03420)
FHM-5 (RSV strain A2) = FHM-5 (RSV strain A2) (UniProt P03420)
FHM-6 (RSV strain A2) = FHM-6 (RSV strain A2) (UniProt P03420)
FHM-7 (RSV strain A2) = FHM-7 (RSV strain A2) (UniProt P03420)
FHS-11 (RSV strain A2) = FHS-11 (RSV strain A2) (UniProt P03420)
FHS-13 (RSV strain A2) = FHS-13 (RSV strain A2) (UniProt P03420)
FHS-16 (RSV strain A2) = FHS-16 (RSV strain A2) (UniProt P03420)
FHS-2 (RSV strain A2) = FHS-2 (RSV strain A2) (UniProt P03420)
FHS-20 (RSV strain A2) = FHS-20 (RSV strain A2) (UniProt P03420)
FHS-22 (RSV strain A2) = FHS-22 (RSV strain A2) (UniProt P03420)
FHS-23 (RSV strain A2) = FHS-23 (RSV strain A2) (UniProt P03420)
FHS-24 (RSV strain A2) = FHS-24 (RSV strain A2) (UniProt P03420)
FHS-26 (RSV strain A2) = FHS-26 (RSV strain A2) (UniProt P03420)
FHS-28 (RSV strain A2) = FHS-28 (RSV strain A2) (UniProt P03420)
FHS-32 (RSV strain A2) = FHS-32 (RSV strain A2) (UniProt P03420)
FHS-36 (RSV strain A2) = FHS-36 (RSV strain A2) (UniProt P03420)
FHS-45 (RSV strain A2) = FHS-45 (RSV strain A2) (UniProt P03420)
FHS-5 (RSV strain A2) = FHS-5 (RSV strain A2) (UniProt P03420)
FHS-51 (RSV strain A2) = FHS-51 (RSV strain A2) (UniProt P03420)
FHS-56 (RSV strain A2) = FHS-56 (RSV strain A2) (UniProt P03420)
FHS-64 (RSV strain A2) = FHS-64 (RSV strain A2) (UniProt P03420)
FHS-65 (RSV strain A2) = FHS-65 (RSV strain A2) (UniProt P03420)
FHS-66 (RSV strain A2) = FHS-66 (RSV strain A2) (UniProt P03420)
FHS-68 (RSV strain A2) = FHS-68 (RSV strain A2) (UniProt P03420)
FHS-72 (RSV strain A2) = FHS-72 (RSV strain A2) (UniProt P03420)
FHS-74 (RSV strain A2) = FHS-74 (RSV strain A2) (UniProt P03420)
FHS-77 (RSV strain A2) = FHS-77 (RSV strain A2) (UniProt P03420)
FHS-79 (RSV strain A2) = FHS-79 (RSV strain A2) (UniProt P03420)
FHS-80 (RSV strain A2) = FHS-80 (RSV strain A2) (UniProt P03420)
FHS-81 (RSV strain A2) = FHS-81 (RSV strain A2) (UniProt P03420)
FHS-82 (RSV strain A2) = FHS-82 (RSV strain A2) (UniProt P03420)
FHS-83 (RSV strain A2) = FHS-83 (RSV strain A2) (UniProt P03420)
FHS-90 (RSV strain A2) = FHS-90 (RSV strain A2) (UniProt P03420)
FHS-91 (RSV strain A2) = FHS-91 (RSV strain A2) (UniProt P03420)
FHS-94 (RSV strain A2) = FHS-94 (RSV strain A2) (UniProt P03420)
FHS-95 (RSV strain A2) = FHS-95 (RSV strain A2) (UniProt P03420)
FHS-97 (RSV strain A2) = FHS-97 (RSV strain A2) (UniProt P03420)
FHS-98 (RSV strain A2) = FHS-98 (RSV strain A2) (UniProt P03420)
[1] = molecular target: wild-type RSV F protein 1 before artificial mutation (RSV strain A2) (UniProt P03420)

AM14 monoclonal antibody
OD value (FHM-12 (RSV strain A2)): 2.13 OD | OD value (FHM-13 (RSV strain A2)): 1.07 OD | OD value (FHM-4 (RSV strain A2)): 0.028 OD | OD value (FHM-5 (RSV strain A2)): 1.96 OD | OD value (FHM-6 (RSV strain A2)): 0.005 OD | OD value (FHM-7 (RSV strain A2)): 0.007 OD | OD value (FHS-11 (RSV strain A2)): 2.04 OD | OD value (FHS-13 (RSV strain A2)): 0.013 OD | OD value (FHS-16 (RSV strain A2)): 0.009 OD | OD value (FHS-2 (RSV strain A2)): 0.012 OD | OD value (FHS-20 (RSV strain A2)): 0.009 OD | OD value (FHS-22 (RSV strain A2)): 0.01 OD | OD value (FHS-23 (RSV strain A2)): 0.008 OD | OD value (FHS-24 (RSV strain A2)): 0.01 OD | OD value (FHS-26 (RSV strain A2)): 0.841 OD | OD value (FHS-28 (RSV strain A2)): 0.008 OD | OD value (FHS-32 (RSV strain A2)): 0.008 OD | OD value (FHS-36 (RSV strain A2)): 0.009 OD | OD value (FHS-45 (RSV strain A2)): 0.12 OD | OD value (FHS-5 (RSV strain A2)): 2.24 OD | OD value (FHS-51 (RSV strain A2)): 0.006 OD | OD value (FHS-56 (RSV strain A2)): 0.009 OD | OD value (FHS-64 (RSV strain A2)): 0.008 OD | OD value (FHS-65 (RSV strain A2)): 1.73 OD | OD value (FHS-66 (RSV strain A2)): 1.75 OD | OD value (FHS-68 (RSV strain A2)): 1.99 OD | OD value (FHS-72 (RSV strain A2)): 0.007 OD | OD value (FHS-74 (RSV strain A2)): 0.023 OD | OD value (FHS-77 (RSV strain A2)): 0.06 OD | OD value (FHS-79 (RSV strain A2)): 0.008 OD | OD value (FHS-80 (RSV strain A2)): 0.005 OD | OD value (FHS-81 (RSV strain A2)): 0.008 OD | OD value (FHS-82 (RSV strain A2)): 0.063 OD | OD value (FHS-83 (RSV strain A2)): 0.064 OD | OD value (FHS-90 (RSV strain A2)): 0.007 OD | OD value (FHS-91 (RSV strain A2)): 0.008 OD | OD value (FHS-94 (RSV strain A2)): 0.009 OD | OD value (FHS-95 (RSV strain A2)): 0.007 OD | OD value (FHS-97 (RSV strain A2)): 0.006 OD | OD value (FHS-98 (RSV strain A2)): 0.007 OD | OD value [1]: 0.014 OD
